We go through four molecules from patent publication US20180319872A1 (UNIVERSITY OF MARYLAND BALTIMORE, published 2018).

For assay [1], the target named is T1, Clostridium difficile toxin B (TcdB) (Clostridium difficile, UniProt P18177 2-2366).
T1 construct: also called TxB
Briefly: binding kinetics, method not stated.

For assay [2], the target named is T1, Clostridium difficile toxin B (TcdB). Kind of assay: ELISA on plates coated with 1 ug/ml TcdB (TxB), OD450.
Assay [3] has as its target T2, Clostridium difficile toxin A (TcdA) (Clostridium difficile, UniProt P16154 1-2710).
T2 construct: also called TxA; rTcdA
Briefly: binding kinetics, method not stated.

T2 sequence (P16154 whole entry): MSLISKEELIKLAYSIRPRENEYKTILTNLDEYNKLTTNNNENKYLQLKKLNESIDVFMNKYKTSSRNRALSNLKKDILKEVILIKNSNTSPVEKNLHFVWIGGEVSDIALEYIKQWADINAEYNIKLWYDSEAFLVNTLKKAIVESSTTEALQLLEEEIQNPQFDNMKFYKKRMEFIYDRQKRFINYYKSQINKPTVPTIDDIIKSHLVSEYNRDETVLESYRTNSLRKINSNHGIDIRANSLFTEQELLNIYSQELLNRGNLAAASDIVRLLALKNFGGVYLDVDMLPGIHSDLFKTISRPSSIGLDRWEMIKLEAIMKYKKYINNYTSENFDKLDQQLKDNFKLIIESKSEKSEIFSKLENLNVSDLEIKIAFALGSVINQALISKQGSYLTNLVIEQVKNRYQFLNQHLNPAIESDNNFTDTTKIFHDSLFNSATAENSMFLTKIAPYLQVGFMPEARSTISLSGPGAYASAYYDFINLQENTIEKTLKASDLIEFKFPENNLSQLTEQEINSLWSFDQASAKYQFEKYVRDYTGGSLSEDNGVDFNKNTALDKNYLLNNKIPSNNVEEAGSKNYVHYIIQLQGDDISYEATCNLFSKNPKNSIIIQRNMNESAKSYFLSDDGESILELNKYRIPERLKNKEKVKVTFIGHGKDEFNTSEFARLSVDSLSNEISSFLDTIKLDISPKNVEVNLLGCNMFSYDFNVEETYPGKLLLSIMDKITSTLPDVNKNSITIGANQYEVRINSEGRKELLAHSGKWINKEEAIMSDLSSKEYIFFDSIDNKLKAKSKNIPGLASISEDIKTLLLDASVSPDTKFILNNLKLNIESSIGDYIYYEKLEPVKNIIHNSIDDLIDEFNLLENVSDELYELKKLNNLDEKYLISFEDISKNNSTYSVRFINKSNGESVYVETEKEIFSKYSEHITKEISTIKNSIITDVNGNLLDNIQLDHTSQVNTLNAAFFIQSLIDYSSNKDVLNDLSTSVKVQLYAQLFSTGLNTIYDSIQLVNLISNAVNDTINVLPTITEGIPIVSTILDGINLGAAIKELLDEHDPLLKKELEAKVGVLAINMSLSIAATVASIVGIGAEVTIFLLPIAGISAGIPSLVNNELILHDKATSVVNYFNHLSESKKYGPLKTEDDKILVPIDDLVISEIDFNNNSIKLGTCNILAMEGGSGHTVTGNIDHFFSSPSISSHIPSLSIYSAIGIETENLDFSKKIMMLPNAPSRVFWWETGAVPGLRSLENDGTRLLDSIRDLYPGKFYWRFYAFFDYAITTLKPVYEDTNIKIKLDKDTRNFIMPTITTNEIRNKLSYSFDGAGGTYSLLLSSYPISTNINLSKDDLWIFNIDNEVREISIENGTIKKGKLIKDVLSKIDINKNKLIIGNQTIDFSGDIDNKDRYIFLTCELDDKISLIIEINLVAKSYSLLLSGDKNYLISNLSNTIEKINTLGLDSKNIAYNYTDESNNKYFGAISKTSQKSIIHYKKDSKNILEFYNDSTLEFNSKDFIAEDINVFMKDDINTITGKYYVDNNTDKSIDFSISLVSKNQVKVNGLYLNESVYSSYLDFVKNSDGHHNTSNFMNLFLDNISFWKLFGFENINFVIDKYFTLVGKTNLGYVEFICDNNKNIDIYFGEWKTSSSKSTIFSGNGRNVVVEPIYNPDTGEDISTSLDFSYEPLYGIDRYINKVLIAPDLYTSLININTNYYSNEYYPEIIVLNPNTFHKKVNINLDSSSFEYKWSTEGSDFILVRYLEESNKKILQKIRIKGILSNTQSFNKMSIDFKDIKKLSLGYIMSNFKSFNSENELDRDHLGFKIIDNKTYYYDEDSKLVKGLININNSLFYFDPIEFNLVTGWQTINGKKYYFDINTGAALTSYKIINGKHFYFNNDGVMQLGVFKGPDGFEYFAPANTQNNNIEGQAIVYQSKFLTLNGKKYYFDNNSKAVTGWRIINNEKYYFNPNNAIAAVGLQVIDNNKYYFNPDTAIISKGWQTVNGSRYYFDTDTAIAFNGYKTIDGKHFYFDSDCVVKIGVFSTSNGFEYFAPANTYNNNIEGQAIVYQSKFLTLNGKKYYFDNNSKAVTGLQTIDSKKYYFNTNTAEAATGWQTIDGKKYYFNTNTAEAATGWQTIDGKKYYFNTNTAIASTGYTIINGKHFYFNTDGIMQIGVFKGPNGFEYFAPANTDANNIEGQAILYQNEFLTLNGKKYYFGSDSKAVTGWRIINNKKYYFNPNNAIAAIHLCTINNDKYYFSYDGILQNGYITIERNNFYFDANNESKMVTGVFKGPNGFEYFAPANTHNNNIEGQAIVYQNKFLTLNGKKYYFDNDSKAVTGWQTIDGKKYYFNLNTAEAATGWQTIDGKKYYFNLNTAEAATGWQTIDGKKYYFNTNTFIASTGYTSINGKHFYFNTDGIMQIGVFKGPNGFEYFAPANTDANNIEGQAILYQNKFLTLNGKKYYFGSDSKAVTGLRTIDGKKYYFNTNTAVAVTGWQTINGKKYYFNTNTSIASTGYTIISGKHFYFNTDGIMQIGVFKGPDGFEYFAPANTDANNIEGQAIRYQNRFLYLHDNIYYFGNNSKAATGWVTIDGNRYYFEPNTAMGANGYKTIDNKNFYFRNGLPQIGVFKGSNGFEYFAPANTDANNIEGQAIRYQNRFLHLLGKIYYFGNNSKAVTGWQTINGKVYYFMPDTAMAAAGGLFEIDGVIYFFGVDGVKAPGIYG
T1 sequence (P18177 2-2366 limits assumed): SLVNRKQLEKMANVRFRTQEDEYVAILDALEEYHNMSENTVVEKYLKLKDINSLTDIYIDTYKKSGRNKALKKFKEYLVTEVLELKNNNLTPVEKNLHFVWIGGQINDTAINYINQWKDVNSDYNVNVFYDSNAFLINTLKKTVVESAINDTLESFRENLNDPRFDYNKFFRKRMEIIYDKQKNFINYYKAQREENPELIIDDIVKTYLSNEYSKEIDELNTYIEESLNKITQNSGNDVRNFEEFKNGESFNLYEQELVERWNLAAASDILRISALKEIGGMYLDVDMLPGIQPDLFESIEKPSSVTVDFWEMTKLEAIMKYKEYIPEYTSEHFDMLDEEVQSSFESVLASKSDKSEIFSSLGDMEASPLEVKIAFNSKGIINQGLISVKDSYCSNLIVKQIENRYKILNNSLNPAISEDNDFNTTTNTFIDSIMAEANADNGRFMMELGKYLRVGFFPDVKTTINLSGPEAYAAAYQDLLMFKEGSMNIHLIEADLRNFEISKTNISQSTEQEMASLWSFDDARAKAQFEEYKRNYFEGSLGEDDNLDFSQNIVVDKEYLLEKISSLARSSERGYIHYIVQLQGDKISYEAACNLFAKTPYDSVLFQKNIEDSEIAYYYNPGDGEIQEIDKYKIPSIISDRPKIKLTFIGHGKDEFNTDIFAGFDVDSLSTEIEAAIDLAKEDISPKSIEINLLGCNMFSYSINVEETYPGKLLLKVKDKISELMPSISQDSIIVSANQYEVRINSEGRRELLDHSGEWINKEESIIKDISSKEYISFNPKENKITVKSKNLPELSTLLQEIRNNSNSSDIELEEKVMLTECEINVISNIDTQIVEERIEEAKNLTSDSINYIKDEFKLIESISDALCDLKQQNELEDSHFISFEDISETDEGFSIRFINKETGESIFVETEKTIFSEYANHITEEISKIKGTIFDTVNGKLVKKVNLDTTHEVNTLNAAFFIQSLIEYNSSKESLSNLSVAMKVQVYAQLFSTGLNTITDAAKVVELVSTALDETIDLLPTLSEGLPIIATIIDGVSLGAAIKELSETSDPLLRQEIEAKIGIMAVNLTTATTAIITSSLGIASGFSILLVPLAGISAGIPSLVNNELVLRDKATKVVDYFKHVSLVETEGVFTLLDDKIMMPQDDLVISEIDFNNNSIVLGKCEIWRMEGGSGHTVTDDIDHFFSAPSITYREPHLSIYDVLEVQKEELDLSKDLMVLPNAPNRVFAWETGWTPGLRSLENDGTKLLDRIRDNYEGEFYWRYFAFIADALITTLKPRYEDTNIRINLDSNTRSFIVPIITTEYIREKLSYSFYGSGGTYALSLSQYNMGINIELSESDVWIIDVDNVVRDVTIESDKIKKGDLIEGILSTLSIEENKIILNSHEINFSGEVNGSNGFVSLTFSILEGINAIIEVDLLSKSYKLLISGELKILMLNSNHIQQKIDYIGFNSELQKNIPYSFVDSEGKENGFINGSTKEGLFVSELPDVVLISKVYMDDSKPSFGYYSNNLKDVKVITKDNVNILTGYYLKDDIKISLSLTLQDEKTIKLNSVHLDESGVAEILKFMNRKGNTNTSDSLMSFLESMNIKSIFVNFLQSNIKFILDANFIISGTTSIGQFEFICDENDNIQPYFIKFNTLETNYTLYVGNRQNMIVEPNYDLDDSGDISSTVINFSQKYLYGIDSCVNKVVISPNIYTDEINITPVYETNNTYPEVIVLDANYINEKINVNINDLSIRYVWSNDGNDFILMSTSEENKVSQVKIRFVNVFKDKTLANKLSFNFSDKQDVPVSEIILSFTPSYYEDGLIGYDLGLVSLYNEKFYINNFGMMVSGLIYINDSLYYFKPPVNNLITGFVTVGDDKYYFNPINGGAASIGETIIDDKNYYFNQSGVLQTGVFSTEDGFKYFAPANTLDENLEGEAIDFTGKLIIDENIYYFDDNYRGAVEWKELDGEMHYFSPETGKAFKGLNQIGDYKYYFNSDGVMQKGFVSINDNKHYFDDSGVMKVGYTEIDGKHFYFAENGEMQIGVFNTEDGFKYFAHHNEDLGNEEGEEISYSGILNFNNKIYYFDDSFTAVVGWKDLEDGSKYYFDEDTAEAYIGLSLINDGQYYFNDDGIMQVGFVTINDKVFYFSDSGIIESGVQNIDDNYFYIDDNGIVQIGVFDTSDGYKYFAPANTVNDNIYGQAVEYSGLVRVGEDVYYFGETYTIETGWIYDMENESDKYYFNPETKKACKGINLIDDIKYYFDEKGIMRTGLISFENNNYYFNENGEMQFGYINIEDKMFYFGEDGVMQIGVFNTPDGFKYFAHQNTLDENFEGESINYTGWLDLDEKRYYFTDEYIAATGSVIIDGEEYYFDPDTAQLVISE

B1: VHH peptide monomer E3 (VHH)
VHH: QVQLVESGGGLVQTGGSLRLSCASSGSIAGFETVTWSRQAPGKSLQWVASMTKTNNEIYSDSVKGRFIISRDNAKNTVYLQMNSLKPEDTGVYFCKGPELRGQGIQVTVSS
notes: also called VHH E3
For B1, in assay [1], the dissociation constant Kd (as a rule, a measure of binding affinity in units of concentration) worked out at 0.03 nM; the off-rate constant (koff) (commonly the rate constant with which the complex falls apart) came to 9.4e-05 s⁻¹; the association rate constant (kon) (commonly a measure of how fast the partners come together) is 2.95e+06 M⁻¹ s⁻¹. Moreover, in assay [2], the EC50 (read off the curve) (as a rule, the midpoint of the concentration-response curve) was about 0.02 µg/mL.

B2: VHH peptide monomer 5D (VHH)
VHH: QVQLVESGGGLVQPGGSLRLSCEASGFTLDYYGIGWFRQPPGKEREAVSYISASARTILYADSVKGRFTISRDNAKNAVYLQMNSLKREDTAVYYCARRRFSASSVNRWLADDYDVWGRGTQVAVSS
In assay [1], B2 had an equilibrium dissociation constant (Kd) of 0.65 nM, a dissociation rate constant (koff) of 0.000994 s⁻¹ and an on-rate constant (kon) of 1.52e+06 M⁻¹ s⁻¹.

B3: ABAB binding agent (AH3/5D/AA6/E3, tetra-specific tetrameric VHH) (designed binder)
chain: QVQLVETGGGLVQPGGSLRLSCAASGFTLDYSSIGWFRQAPGKEREGVSCISSSGDSTKYADSVKGRFTTSRDNAKNTVYLQMNSLKPDDTAVYYCAAFRATMCGVFPLSPYGKDDWGKGTLVTVSSGGGGSGGGGSGGGGSQVQLVESGGGLVQPGGSLRLSCEASGFTLDYYGIGWFRQPPGKEREAVSYISASARTILYADSVKGRFTISRDNAKNAVYLQMNSLKREDTAVYYCARRRFSASSVNRWLADDYDVWGRGTQVAVSSGGGSGGGSGGGSGGGSQLQLVETGGGLVQPGGSLRLSCAASGFTFSDYVMTWVRQAPGKGPEWIATINTDGSTMRDDSTKGRFTISRDNAKNTLYLQMTSLKPEDTALYYCARGRVISASAIRGAVRGPGTQVTVSSGGGGSGGGGSGGGGSQVQLVESGGGLVQTGGSLRLSCASSGSIAGFETVTWSRQAPGKSLQWVASMTKTNNEIYSDSVKGRFIISRDNAKNTVYLQMNSLKPEDTGVYFCKGPELRGQGIQVTVSS
notes: also called r-ABAB; recombinant ABAB
In assay [1], B3 had an equilibrium dissociation constant (Kd) of 0.002 nM, a koff of 3.57e-06 s⁻¹ and an association rate constant (kon) of 1.79e+06 M⁻¹ s⁻¹.

B4: VHH peptide monomer AH3 (VHH)
VHH: QVQLVETGGLVQPGGSLRLSCAASGFTLDYSSIGWFRQAPGKEREGVSCISSSGDSTKYADSVKGRFTTSRDNAKNTVYLQMNSLKPDDTAVYYCAAFRATMCGVFPLSPYGKDDWGKGTLVTVSS
notes: also called VHH AH3
In assay [3], B4 gave a Kd of 32 nM, an off-rate constant (koff) of 0.00071 s⁻¹ and a kon of 22000 M⁻¹ s⁻¹.
